What was measured:
Assay in all cases: SPR (Biacore), binding relative to GpH7-A5/GpH7-B3/GpL16-k0 x100;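 also: surface plasmon resonance at 25 °C, antibody captured on a sensor chip and soluble FcγR flowed over it in HBS-EP+ running buffer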
[1] = target: T1, FcγRIa (human, UniProt P12314 16-292)
T1 construct: extracellular domain; also called 1a

[2] = target: T2, FcγRIIa(R) (human, UniProt P12318 34-217)
T2 construct: extracellular domain; also called FcγRIIa R type; 2aR
T2 sequence: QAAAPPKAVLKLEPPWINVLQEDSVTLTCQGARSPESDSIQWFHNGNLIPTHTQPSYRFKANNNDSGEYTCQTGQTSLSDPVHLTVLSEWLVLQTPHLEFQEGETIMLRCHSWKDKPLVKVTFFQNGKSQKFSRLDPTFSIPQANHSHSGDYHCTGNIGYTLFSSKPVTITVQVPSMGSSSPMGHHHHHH

[3] = target: T3, FcγRIIa(H) (human, UniProt P12318 34-217)
T3 construct: extracellular domain; also called FcγRIIa H type; 2aH
T3 sequence: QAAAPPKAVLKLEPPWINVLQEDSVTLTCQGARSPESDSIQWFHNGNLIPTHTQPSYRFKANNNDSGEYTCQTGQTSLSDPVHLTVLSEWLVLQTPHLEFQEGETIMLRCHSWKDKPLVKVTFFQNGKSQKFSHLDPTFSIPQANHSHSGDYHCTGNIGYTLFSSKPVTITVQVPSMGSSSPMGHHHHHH

[4] = target: T4, FcγRIIb (human, UniProt P31994 43-217)
T4 construct: extracellular domain; also called 2b
T4 sequence: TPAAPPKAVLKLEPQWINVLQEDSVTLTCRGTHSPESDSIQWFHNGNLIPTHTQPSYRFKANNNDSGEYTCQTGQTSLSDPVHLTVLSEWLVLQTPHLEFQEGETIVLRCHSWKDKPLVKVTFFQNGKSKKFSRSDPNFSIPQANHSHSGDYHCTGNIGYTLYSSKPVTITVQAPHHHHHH

T1 sequence (P12314 other isoform, or with tags, fused parts or gaps): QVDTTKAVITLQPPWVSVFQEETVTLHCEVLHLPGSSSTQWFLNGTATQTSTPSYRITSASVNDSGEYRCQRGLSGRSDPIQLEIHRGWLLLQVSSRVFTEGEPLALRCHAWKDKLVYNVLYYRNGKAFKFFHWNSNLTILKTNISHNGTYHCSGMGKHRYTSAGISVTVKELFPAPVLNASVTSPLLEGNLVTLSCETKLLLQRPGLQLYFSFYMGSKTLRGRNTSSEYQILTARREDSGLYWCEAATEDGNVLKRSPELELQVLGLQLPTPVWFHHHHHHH

B1: GpH7-A5/GpH7-B3 variant L235_02A/GpL16-k0 (antibody, human IgG1, kappa)
heavy 1: not shown
heavy 2: not shown
light: DIVMTQSPLSLPVTPGEPASISCQASESLVHSNRNTYLHWYLQKPGQSPQLLIYKVSNRFSGVPDRFSGSGSGTDFTLKISRVEAEDVGVYYCSQNTHVPPTFGQGTKVEIERTVAAPSVFIFPPSDEQLKSGTASVVCLLNNFYPREAKVQWKVDNALQSGNSQESVTEQDSKDSTYSLSSTLTLSKADYEKHKVYACEVTHQGLSSPVTKSFNRGEC
notes: heterodimerized IgG1, one H chain mutated; also called He Ab
He/Con 1a [1]: 95.2% | He/Con 2aR [2]: 86.6% | He/Con 2aH [3]: 77.6% | He/Con 2b [4]: 72%

B2: GpH7-A5/GpH7-B3 variant L235_04F/GpL16-k0 (antibody, human IgG1, kappa)
heavy 1: not shown
heavy 2: not shown
light: DIVMTQSPLSLPVTPGEPASISCQASESLVHSNRNTYLHWYLQKPGQSPQLLIYKVSNRFSGVPDRFSGSGSGTDFTLKISRVEAEDVGVYYCSQNTHVPPTFGQGTKVEIERTVAAPSVFIFPPSDEQLKSGTASVVCLLNNFYPREAKVQWKVDNALQSGNSQESVTEQDSKDSTYSLSSTLTLSKADYEKHKVYACEVTHQGLSSPVTKSFNRGEC
notes: as for B1
He/Con 1a [1]: 100% | He/Con 2aR [2]: 132% | He/Con 2aH [3]: 123% | He/Con 2b [4]: 135%

B3: GpH7-A5/GpH7-B3 variant L235_16H/GpL16-k0 (antibody, human IgG1, kappa)
heavy 1: not shown
heavy 2: not shown
light: DIVMTQSPLSLPVTPGEPASISCQASESLVHSNRNTYLHWYLQKPGQSPQLLIYKVSNRFSGVPDRFSGSGSGTDFTLKISRVEAEDVGVYYCSQNTHVPPTFGQGTKVEIERTVAAPSVFIFPPSDEQLKSGTASVVCLLNNFYPREAKVQWKVDNALQSGNSQESVTEQDSKDSTYSLSSTLTLSKADYEKHKVYACEVTHQGLSSPVTKSFNRGEC
notes: as for B1
He/Con 1a [1]: 92.7% | He/Con 2aR [2]: 110% | He/Con 2aH [3]: 99.8% | He/Con 2b [4]: 87.8%

B4: GpH7-A5/GpH7-B3 variant L235_13S/GpL16-k0 (antibody, human IgG1, kappa)
heavy 1: not shown
heavy 2: not shown
light: DIVMTQSPLSLPVTPGEPASISCQASESLVHSNRNTYLHWYLQKPGQSPQLLIYKVSNRFSGVPDRFSGSGSGTDFTLKISRVEAEDVGVYYCSQNTHVPPTFGQGTKVEIERTVAAPSVFIFPPSDEQLKSGTASVVCLLNNFYPREAKVQWKVDNALQSGNSQESVTEQDSKDSTYSLSSTLTLSKADYEKHKVYACEVTHQGLSSPVTKSFNRGEC
notes: as for B1
He/Con 1a [1]: 93.5% | He/Con 2aR [2]: 75.9% | He/Con 2aH [3]: 73.5% | He/Con 2b [4]: 55%

B5: GpH7-A5/GpH7-B3 variant L235_06M/GpL16-k0 (antibody, human IgG1, kappa)
heavy 1: not shown
heavy 2: not shown
light: DIVMTQSPLSLPVTPGEPASISCQASESLVHSNRNTYLHWYLQKPGQSPQLLIYKVSNRFSGVPDRFSGSGSGTDFTLKISRVEAEDVGVYYCSQNTHVPPTFGQGTKVEIERTVAAPSVFIFPPSDEQLKSGTASVVCLLNNFYPREAKVQWKVDNALQSGNSQESVTEQDSKDSTYSLSSTLTLSKADYEKHKVYACEVTHQGLSSPVTKSFNRGEC
notes: as for B1
He/Con 1a [1]: 101% | He/Con 2aR [2]: 106% | He/Con 2aH [3]: 96.3% | He/Con 2b [4]: 92.4%

B6: GpH7-A5/GpH7-B3 variant L235_09D/GpL16-k0 (antibody, human IgG1, kappa)
heavy 1: not shown
heavy 2: not shown
light: DIVMTQSPLSLPVTPGEPASISCQASESLVHSNRNTYLHWYLQKPGQSPQLLIYKVSNRFSGVPDRFSGSGSGTDFTLKISRVEAEDVGVYYCSQNTHVPPTFGQGTKVEIERTVAAPSVFIFPPSDEQLKSGTASVVCLLNNFYPREAKVQWKVDNALQSGNSQESVTEQDSKDSTYSLSSTLTLSKADYEKHKVYACEVTHQGLSSPVTKSFNRGEC
notes: as for B1
He/Con 1a [1]: 87.6% | He/Con 2aR [2]: 117% | He/Con 2aH [3]: 84.3% | He/Con 2b [4]: 121%

B7: GpH7-A5/GpH7-B3 variant L235_18N/GpL16-k0 (antibody, human IgG1, kappa)
heavy 1: not shown
heavy 2: not shown
light: DIVMTQSPLSLPVTPGEPASISCQASESLVHSNRNTYLHWYLQKPGQSPQLLIYKVSNRFSGVPDRFSGSGSGTDFTLKISRVEAEDVGVYYCSQNTHVPPTFGQGTKVEIERTVAAPSVFIFPPSDEQLKSGTASVVCLLNNFYPREAKVQWKVDNALQSGNSQESVTEQDSKDSTYSLSSTLTLSKADYEKHKVYACEVTHQGLSSPVTKSFNRGEC
notes: as for B1
He/Con 1a [1]: 95.2% | He/Con 2aR [2]: 77.3% | He/Con 2aH [3]: 73.5% | He/Con 2b [4]: 62.7%

B8: GpH7-A5/GpH7-B3 variant L235_15Y/GpL16-k0 (antibody, human IgG1, kappa)
heavy 1: not shown
heavy 2: not shown
light: DIVMTQSPLSLPVTPGEPASISCQASESLVHSNRNTYLHWYLQKPGQSPQLLIYKVSNRFSGVPDRFSGSGSGTDFTLKISRVEAEDVGVYYCSQNTHVPPTFGQGTKVEIERTVAAPSVFIFPPSDEQLKSGTASVVCLLNNFYPREAKVQWKVDNALQSGNSQESVTEQDSKDSTYSLSSTLTLSKADYEKHKVYACEVTHQGLSSPVTKSFNRGEC
notes: as for B1
He/Con 1a [1]: 100% | He/Con 2aR [2]: 150% | He/Con 2aH [3]: 135% | He/Con 2b [4]: 170%

B9: GpH7-A5/GpH7-B3 variant L235_05P/GpL16-k0 (antibody, human IgG1, kappa)
heavy 1: not shown
heavy 2: not shown
light: DIVMTQSPLSLPVTPGEPASISCQASESLVHSNRNTYLHWYLQKPGQSPQLLIYKVSNRFSGVPDRFSGSGSGTDFTLKISRVEAEDVGVYYCSQNTHVPPTFGQGTKVEIERTVAAPSVFIFPPSDEQLKSGTASVVCLLNNFYPREAKVQWKVDNALQSGNSQESVTEQDSKDSTYSLSSTLTLSKADYEKHKVYACEVTHQGLSSPVTKSFNRGEC
notes: as for B1
He/Con 1a [1]: 97.8% | He/Con 2aR [2]: 74.6% | He/Con 2aH [3]: 64.2% | He/Con 2b [4]: 62.4%

B10: GpH7-A5/GpH7-B3 variant L235_10E/GpL16-k0 (antibody, human IgG1, kappa)
heavy 1: not shown
heavy 2: not shown
light: DIVMTQSPLSLPVTPGEPASISCQASESLVHSNRNTYLHWYLQKPGQSPQLLIYKVSNRFSGVPDRFSGSGSGTDFTLKISRVEAEDVGVYYCSQNTHVPPTFGQGTKVEIERTVAAPSVFIFPPSDEQLKSGTASVVCLLNNFYPREAKVQWKVDNALQSGNSQESVTEQDSKDSTYSLSSTLTLSKADYEKHKVYACEVTHQGLSSPVTKSFNRGEC
notes: as for B1
He/Con 1a [1]: 96.9% | He/Con 2aR [2]: 98.7% | He/Con 2aH [3]: 80% | He/Con 2b [4]: 90.8%

B11: GpH7-A5/GpH7-B3 variant P238_09D/GpL16-k0 (antibody, human IgG1, kappa)
heavy 1: not shown
heavy 2: not shown
light: DIVMTQSPLSLPVTPGEPASISCQASESLVHSNRNTYLHWYLQKPGQSPQLLIYKVSNRFSGVPDRFSGSGSGTDFTLKISRVEAEDVGVYYCSQNTHVPPTFGQGTKVEIERTVAAPSVFIFPPSDEQLKSGTASVVCLLNNFYPREAKVQWKVDNALQSGNSQESVTEQDSKDSTYSLSSTLTLSKADYEKHKVYACEVTHQGLSSPVTKSFNRGEC
notes: as for B1
He/Con 1a [1]: 99% | He/Con 2aR [2]: 140% | He/Con 2aH [3]: 84.7% | He/Con 2b [4]: 224%

B12: GpH7-A5/GpH7-B3 variant L235_03V/GpL16-k0 (antibody, human IgG1, kappa)
heavy 1: not shown
heavy 2: not shown
light: DIVMTQSPLSLPVTPGEPASISCQASESLVHSNRNTYLHWYLQKPGQSPQLLIYKVSNRFSGVPDRFSGSGSGTDFTLKISRVEAEDVGVYYCSQNTHVPPTFGQGTKVEIERTVAAPSVFIFPPSDEQLKSGTASVVCLLNNFYPREAKVQWKVDNALQSGNSQESVTEQDSKDSTYSLSSTLTLSKADYEKHKVYACEVTHQGLSSPVTKSFNRGEC
notes: as for B1
He/Con 1a [1]: 97.8% | He/Con 2aR [2]: 83.4% | He/Con 2aH [3]: 94.9% | He/Con 2b [4]: 75.8%

B13: GpH7-A5/GpH7-B3 variant P238_08L/GpL16-k0 (antibody, human IgG1, kappa)
heavy 1: not shown
heavy 2: not shown
light: DIVMTQSPLSLPVTPGEPASISCQASESLVHSNRNTYLHWYLQKPGQSPQLLIYKVSNRFSGVPDRFSGSGSGTDFTLKISRVEAEDVGVYYCSQNTHVPPTFGQGTKVEIERTVAAPSVFIFPPSDEQLKSGTASVVCLLNNFYPREAKVQWKVDNALQSGNSQESVTEQDSKDSTYSLSSTLTLSKADYEKHKVYACEVTHQGLSSPVTKSFNRGEC
notes: as for B1
He/Con 1a [1]: 104% | He/Con 2aR [2]: 132% | He/Con 2aH [3]: 81.8% | He/Con 2b [4]: 207%

B14: GpH7-A5/GpH7-B3 variant L235_20W/GpL16-k0 (antibody, human IgG1, kappa)
heavy 1: not shown
heavy 2: not shown
light: DIVMTQSPLSLPVTPGEPASISCQASESLVHSNRNTYLHWYLQKPGQSPQLLIYKVSNRFSGVPDRFSGSGSGTDFTLKISRVEAEDVGVYYCSQNTHVPPTFGQGTKVEIERTVAAPSVFIFPPSDEQLKSGTASVVCLLNNFYPREAKVQWKVDNALQSGNSQESVTEQDSKDSTYSLSSTLTLSKADYEKHKVYACEVTHQGLSSPVTKSFNRGEC
notes: as for B1
He/Con 1a [1]: 95.9% | He/Con 2aR [2]: 152% | He/Con 2aH [3]: 131% | He/Con 2b [4]: 168%

B15: GpH7-A5/GpH7-B3 variant L235_14T/GpL16-k0 (antibody, human IgG1, kappa)
heavy 1: not shown
heavy 2: not shown
light: DIVMTQSPLSLPVTPGEPASISCQASESLVHSNRNTYLHWYLQKPGQSPQLLIYKVSNRFSGVPDRFSGSGSGTDFTLKISRVEAEDVGVYYCSQNTHVPPTFGQGTKVEIERTVAAPSVFIFPPSDEQLKSGTASVVCLLNNFYPREAKVQWKVDNALQSGNSQESVTEQDSKDSTYSLSSTLTLSKADYEKHKVYACEVTHQGLSSPVTKSFNRGEC
notes: as for B1
He/Con 1a [1]: 91.6% | He/Con 2aR [2]: 70.6% | He/Con 2aH [3]: 79.5% | He/Con 2b [4]: 53.4%

B16: GpH7-A5/GpH7-B3 variant L235_07I/GpL16-k0 (antibody, human IgG1, kappa)
heavy 1: not shown
heavy 2: not shown
light: DIVMTQSPLSLPVTPGEPASISCQASESLVHSNRNTYLHWYLQKPGQSPQLLIYKVSNRFSGVPDRFSGSGSGTDFTLKISRVEAEDVGVYYCSQNTHVPPTFGQGTKVEIERTVAAPSVFIFPPSDEQLKSGTASVVCLLNNFYPREAKVQWKVDNALQSGNSQESVTEQDSKDSTYSLSSTLTLSKADYEKHKVYACEVTHQGLSSPVTKSFNRGEC
notes: as for B1
He/Con 1a [1]: 103% | He/Con 2aR [2]: 102% | He/Con 2aH [3]: 99.5% | He/Con 2b [4]: 100%

Source: patent US20260167699A1 (Chugai, published 2026)
